The results in this text go back to US20190321483A1 (Novartis, published 2019).

Test [1] addresses T1, Human cKIT D1-5 (extracellular domain) (human, UniProt P10721 26-524).
T1 construct: also called human cKIT ECD; full-length cKIT ECD
Put plainly: 'in SET' by the column head; Example 4 describes Biacore SPR (antibody captured by anti-human Fc, cKIT ECD in solution).

The target of test [2] is T2, Cynomolgus monkey cKIT D1-5 (cynomolgus monkey, UniProt P10721 26-524 (human entry)).
T2 construct: also called cyno cKIT ECD
T2 chain: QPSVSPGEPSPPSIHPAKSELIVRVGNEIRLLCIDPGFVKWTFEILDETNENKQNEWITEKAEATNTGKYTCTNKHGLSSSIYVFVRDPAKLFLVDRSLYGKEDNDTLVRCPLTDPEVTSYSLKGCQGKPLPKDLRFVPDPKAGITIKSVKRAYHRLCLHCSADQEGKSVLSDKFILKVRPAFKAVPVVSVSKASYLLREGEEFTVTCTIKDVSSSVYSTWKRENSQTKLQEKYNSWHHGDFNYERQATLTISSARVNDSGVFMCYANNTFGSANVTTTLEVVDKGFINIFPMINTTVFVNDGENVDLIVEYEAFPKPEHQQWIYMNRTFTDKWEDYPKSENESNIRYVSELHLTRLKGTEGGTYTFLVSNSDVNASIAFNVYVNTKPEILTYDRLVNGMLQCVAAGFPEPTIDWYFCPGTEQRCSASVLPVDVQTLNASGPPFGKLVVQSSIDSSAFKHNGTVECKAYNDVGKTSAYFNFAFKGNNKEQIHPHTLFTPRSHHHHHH
Described as above.

Test [3] deals with T3, Rat cKIT D1-5, C-terminal mFc (rat).
T3 construct: also called rat cKIT-mFc
T3 chain: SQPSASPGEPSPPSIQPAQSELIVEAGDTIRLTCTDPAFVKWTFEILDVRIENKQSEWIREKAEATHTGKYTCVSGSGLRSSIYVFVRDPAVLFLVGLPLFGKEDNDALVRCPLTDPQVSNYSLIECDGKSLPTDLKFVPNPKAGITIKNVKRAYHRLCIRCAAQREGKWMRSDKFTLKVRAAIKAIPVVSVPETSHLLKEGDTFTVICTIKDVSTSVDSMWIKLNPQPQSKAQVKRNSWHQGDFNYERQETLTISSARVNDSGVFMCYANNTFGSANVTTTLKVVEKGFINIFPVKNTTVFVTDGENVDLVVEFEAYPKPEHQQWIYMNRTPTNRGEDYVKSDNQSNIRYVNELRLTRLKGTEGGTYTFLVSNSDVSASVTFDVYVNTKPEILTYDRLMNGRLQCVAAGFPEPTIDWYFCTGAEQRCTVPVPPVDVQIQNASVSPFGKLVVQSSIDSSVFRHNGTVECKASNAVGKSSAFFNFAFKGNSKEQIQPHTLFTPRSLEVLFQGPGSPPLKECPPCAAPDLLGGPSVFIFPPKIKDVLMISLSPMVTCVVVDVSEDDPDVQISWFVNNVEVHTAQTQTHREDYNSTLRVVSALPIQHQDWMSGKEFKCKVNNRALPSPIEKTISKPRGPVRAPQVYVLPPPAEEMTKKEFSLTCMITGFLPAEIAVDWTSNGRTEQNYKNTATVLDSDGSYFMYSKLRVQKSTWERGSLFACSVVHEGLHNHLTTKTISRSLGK
Put plainly: cross reactivity, Table 6 (Example 4: Biacore SPR, antibody captured, cKIT ECD in solution). For orientation: Surface plasmon resonance follows binding to a sensor surface in real time, without labels.

The target in test [4] is T4, Mouse cKIT ECD, C-terminal 6x His (Sino Biological Inc, Catalog number 50530-M08H) (mouse, UniProt P05532 25-527).
T4 construct: extracellular domain
T4 sequence: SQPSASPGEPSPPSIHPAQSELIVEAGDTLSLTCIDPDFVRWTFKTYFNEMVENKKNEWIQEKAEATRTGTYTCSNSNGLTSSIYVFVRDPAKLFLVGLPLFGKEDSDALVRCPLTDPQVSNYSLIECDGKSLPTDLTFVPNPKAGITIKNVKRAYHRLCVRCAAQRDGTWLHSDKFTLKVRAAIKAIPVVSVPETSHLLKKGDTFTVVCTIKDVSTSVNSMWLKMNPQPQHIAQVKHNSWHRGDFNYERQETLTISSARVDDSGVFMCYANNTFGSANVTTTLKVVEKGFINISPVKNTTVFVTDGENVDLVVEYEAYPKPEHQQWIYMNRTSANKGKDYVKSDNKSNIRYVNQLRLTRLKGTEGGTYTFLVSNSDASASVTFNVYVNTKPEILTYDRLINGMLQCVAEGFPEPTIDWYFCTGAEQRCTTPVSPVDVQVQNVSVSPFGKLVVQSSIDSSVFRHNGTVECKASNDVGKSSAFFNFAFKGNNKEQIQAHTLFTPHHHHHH
Kind of test: cross reactivity, Table 6 (Example 4: Biacore SPR, antibody captured by anti-human Fc, cKIT ECD in solution).

The target of test [5] is T3, Rat cKIT D1-5, C-terminal mFc. The test is described as above.

T1 sequence (P10721 other isoform, or with tags, fused parts or gaps): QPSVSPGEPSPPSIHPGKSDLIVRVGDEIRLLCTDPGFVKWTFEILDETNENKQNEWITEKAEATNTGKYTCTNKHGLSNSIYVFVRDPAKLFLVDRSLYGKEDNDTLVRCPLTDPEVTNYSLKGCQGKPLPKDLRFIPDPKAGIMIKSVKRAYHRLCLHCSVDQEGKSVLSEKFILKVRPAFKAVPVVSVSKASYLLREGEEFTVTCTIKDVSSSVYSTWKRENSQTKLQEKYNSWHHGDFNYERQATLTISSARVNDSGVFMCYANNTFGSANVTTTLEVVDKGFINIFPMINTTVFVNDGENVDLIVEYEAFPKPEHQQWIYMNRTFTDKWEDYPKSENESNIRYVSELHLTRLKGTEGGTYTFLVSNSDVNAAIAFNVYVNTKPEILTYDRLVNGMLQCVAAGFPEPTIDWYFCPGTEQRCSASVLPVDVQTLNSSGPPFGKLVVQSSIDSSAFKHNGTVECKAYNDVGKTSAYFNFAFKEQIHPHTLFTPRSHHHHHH

B1: Anti-cKIT Ab4 (antibody, human IgG1, lambda, V domains shown)
VH: QVQLQQSGPGLVKPSQTLSLTCAISGDSVSTNSAAWNWIRQSPSRGLEWLGRIYYRSQWLNDYAVSVKSRITINPDTSKNQFSLQLNSVTPEDTAVYYCARQLTYPYTVYHKALDVWGQGTLVTVSS
VL: DIELTQPPSVSVSPGQTASITCSGDNLGDQYVSWYQQKPGQAPVLVIYDDTDRPSGIPERFSGSNSGNTATLTISGTQAEDEADYYCQSTDSKSVVFGGGTKLTVLG
notes: Full-length human IgG1, lambda light chain; also called IgG control for J4
For B1, the values for the Kd in test [1] and in test [2] were 2400 pM and 140 pM, respectively. In addition, in test [3], the binding result is listed as “binds”.

B2: Anti-cKIT Ab5 (antibody, human IgG1, lambda, V domains shown)
VH: QVQLVQSGAEVKKPGESLKISCKGSGYSFTNYWIAWVRQMPGKGLEWMGIIYPSNSYTLYSPSFQGQVTISADKSISTAYLQWSSLKASDTAMYYCARVPPGGSISYPAFDHWGQGTLVTVSS
VL: DIELTQPPSVSVSPGQTASITCSGDNIGSIYASWYQQKPGQAPVLVIYRDNKRPSGIPERFSGSNSGNTATLTISGTQAEDEADYYCSVTDMEQHSVFGGGTKLTVLG
notes: Full-length human IgG1, lambda light chain
B2: the Kd in test [1] was found to be 110 pM; in test [2], 180 pM. Besides, the binding result in test [3] is “binds”.

B3: Anti-cKIT Ab1 (antibody, human IgG1, kappa, V domains shown)
VH: QVQLVQSGAEVKKPGSSVKVSCKASGGTFSSYAISWVRQAPGQGLEWMGVIFPAEGAPGYAQKFQGRVTITADESTSTAYMELSSLRSEDTAVYYCARGGYISDFDVWGQGTLVTVSS
VL: DIQMTQSPSSLSASVGDRVTITCRASQSISNYLAWYQQKPGKAPKLLIYDASSLQSGVPSRFSGSGSGTDFTLTISSLQPEDFATYYCQQYYYESITFGQGTKVEIKR
notes: Full-length human IgG1, kappa light chain; also called IgG control for J1
With B3, the figures for the Kd in test [1] and in test [2] were 94 pM and 170 pM, respectively. The binding result in test [4] and in test [5] was “no binding” in each case.

B4: Anti-cKIT Ab2 (antibody, human IgG1, kappa, V domains shown)
VH: QVQLVQSGAEVKKPGSSVKVSCKASGGTFSSHALSWVRQAPGQGLEWMGGIIPSFGTADYAQKFQGRVTITADESTSTAYMELSSLRSEDTAVYYCARGLYDFDYWGQGTLVTVSS
VL: DIQMTQSPSSLSASVGDRVTITCRASQDISQDLAWYQQKPGKAPKLLIYDASSLQSGVPSRFSGSGSGTDFTLTISSLQPEDFAVYYCQQYYYLPSTFGQGTKVEIKR
notes: Full-length human IgG1, kappa light chain; also called IgG control for J2
In the case of B4, the values for the dissociation constant (Kd) in test [1] and in test [2] were 7 pM and 10 pM, respectively. In addition, the binding result in test [4] and in test [5] was “no binding” each time.

B5: Anti-cKIT Ab3 (antibody, human IgG1, kappa, V domains shown)
VH: QVQLVQSGAEVKKPGSSVKVSCKASGGTFSSYAISWVRQAPGQGLEWMGTIGPFEGQPRYAQKFQGRVTITADESTSTAYMELSSLRSEDTAVYYCARGGYISDFDVWGQGTLVTVSS
VL: DIQMTQSPSSLSASVGDRVTITCRASQSISNYLAWYQQKPGKAPKLLIYDASSLQSGVPSRFSGSGSGTDFTLTISSLQPEDFATYYCQQYYYESITFGQGTKVEIKR
notes: Full-length human IgG1, kappa light chain; also called IgG control for J3
Consider B5, for which, in test [2], the Kd was 52 pM. Also, the binding result in test [4] and in test [5] was “no binding” throughout.

In general, Kd refers to the constant that tells how readily two partners part at equilibrium.
